Experimental data reported in PMC6827484 (Methods in molecular biology (Clifton, N.J.), 2019).

Biological target: target antigen of trastuzumab on the target cells (UniProt P04626)
Assay: flow cytometry on cells

B1: meditope-enabled trastuzumab (antibody, V domains shown)
VH: not shown
VL: DIQMTQSPILLSASVGDRVTITCRASQDVNTAVAWYQQRTNGSPRLLIYSASFLYSGVPSRFSGSRSGTDFTLTISSLQPEDIADYYCQQHYTTPPTFGAGTKVEIK
Question: Does B1 bind?
Answer: binds
